The record followed here is paper doi:10.1101/2022.06.02.494603.

Positions count from the first letter of the chain named. Names may count otherwise.

This test deals with optineurin, C-terminal myc-FLAG-tagged, Q96CV9. Put plainly: co-IP. Particulars: remark: other sources report otherwise.
Chain of optineurin, C-terminal myc-FLAG-tagged, Q96CV9 (Q96CV9 whole entry): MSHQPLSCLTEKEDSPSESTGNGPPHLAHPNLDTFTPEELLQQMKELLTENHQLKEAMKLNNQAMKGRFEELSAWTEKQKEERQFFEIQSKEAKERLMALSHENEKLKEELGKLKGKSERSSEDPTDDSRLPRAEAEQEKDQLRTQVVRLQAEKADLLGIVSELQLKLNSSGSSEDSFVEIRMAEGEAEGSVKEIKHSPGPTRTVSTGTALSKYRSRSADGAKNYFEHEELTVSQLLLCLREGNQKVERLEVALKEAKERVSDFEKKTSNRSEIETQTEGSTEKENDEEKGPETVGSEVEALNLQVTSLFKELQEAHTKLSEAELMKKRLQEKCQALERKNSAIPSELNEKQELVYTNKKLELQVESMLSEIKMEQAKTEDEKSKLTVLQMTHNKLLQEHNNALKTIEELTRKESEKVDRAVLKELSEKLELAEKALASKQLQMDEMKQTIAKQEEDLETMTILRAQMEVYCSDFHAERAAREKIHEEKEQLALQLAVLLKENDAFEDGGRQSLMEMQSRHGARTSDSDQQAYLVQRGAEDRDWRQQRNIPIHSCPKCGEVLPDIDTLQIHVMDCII

B1: TBK1 p.E696K, untagged, Q9UHD2 1-729 (natural protein)
chain: MQSTSNHLWLLSDILGQGATANVFRGRHKKTGDLFAIKVFNNISFLRPVDVQMREFEVLKKLNHKNIVKLFAIEEETTTRHKVLIMEFCPCGSLYTVLEEPSNAYGLPESEFLIVLRDVVGGMNHLRENGIVHRDIKPGNIMRVIGEDGQSVYKLTDFGAARELEDDEQFVSLYGTEEYLHPDMYERAVLRKDHQKKYGATVDLWSIGVTFYHAATGSLPFRPFEGPRRNKEVMYKIITGKPSGAISGVQKAENGPIDWSGDMPVSCSLSRGLQVLLTPVLANILEADQEKCWGFDQFFAETSDILHRMVIHVFSLQQMTAHKIYIHSYNTATIFHELVYKQTKIISSNQELIYEGRRLVLEPGRLAQHFPKTTEENPIFVVSREPLNTIGLIYEKISLPKVHPRYDLDGDASMAKAITGVVCYACRIASTLLLYQELMRKGIRWLIELIKDDYNETVHKKTEVVITLDFCIRNIEKTVKVYEKLMKINLEAAELGEISDIHTKLLRLSSSQGTIETSLQDIDSRLSPGGSLADAWAHQEGTHPKDRNVEKLQVLLNCMTEIYYQFKKDKAERRLAYNEEQIHKFDKQKLYYHATKAMTHFTDECVKKYEAFLNKSEEWIRKMLHLRKQLLSLTNQCFDIEEEVSKYQEYTNELQETLPQKMFTASSGIKHTMTPIYPSSNTLVEMTLGMKKLKEKMEGVVKELAENNHILERFGSLTMDGGLRNVDCL
The molecule B1 returned a TBK1 bound to OPTN relative to wild type (relative to TBK1 WT) of 0.02.

B2: TBK1 G217R, untagged, Q9UHD2 1-729 (natural protein)
chain: B1 chain with G217R, K696E
In turn, B2 had a TBK1 bound to OPTN relative to wild type (relative to TBK1 WT) of 0.27.
